Laboratory results reported in patent US20190358305A1.

Target: Recombinant human active MMP-3 (ab96555, Abcam) (human) (UniProt P08254)
Assay: cell-based or functional assay

Chain of UniProt P08254 (P08254 100-477 limits assumed): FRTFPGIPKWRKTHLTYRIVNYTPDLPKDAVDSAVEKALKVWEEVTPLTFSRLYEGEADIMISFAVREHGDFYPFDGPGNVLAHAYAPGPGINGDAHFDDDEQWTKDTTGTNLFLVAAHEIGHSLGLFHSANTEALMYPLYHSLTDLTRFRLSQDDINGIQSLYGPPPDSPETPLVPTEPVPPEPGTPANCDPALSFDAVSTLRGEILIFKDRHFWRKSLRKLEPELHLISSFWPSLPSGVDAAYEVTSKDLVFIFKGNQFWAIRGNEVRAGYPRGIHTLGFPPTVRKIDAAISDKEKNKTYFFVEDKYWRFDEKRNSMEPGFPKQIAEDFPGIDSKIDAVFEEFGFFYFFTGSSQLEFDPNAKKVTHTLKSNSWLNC

- TEER reduction of HTM monolayers over 24 h: 10 ng/ml active MMP-3 against MMP-3 inactivated by incubation with TIMP-1: 4.29 Ohm·cm^2
- TEER reduction of SCEC monolayers over 24 h: 10 ng/ml active MMP-3 against MMP-3 inactivated by incubation with TIMP-1: 5.62 Ohm·cm^2
- increase in paracellular flux (Papp) of 70 kDa FITC-dextran through HTM monolayers: active MMP-3 against TIMP-1-inactivated MMP-3: 4e-05 ×10⁻⁶ cm/s
- increase in paracellular flux (Papp) of 70 kDa FITC-dextran through SCEC monolayers: active MMP-3 against TIMP-1-inactivated MMP-3: 0.00014 ×10⁻⁶ cm/s
Substance: Recombinant human active TIMP-1 (ab82104, Abcam) (from UniProt P01033 24-207)
